For 1 molecule, Kd results are on record in patent publication US20200209227A1 (published 2020).

As a reminder, the Kd is the constant that tells how readily two partners part at equilibrium. The low end stands for higher affinity, the high end for lower affinity.

The target of this experiment is T1, Rh5 (UniProt Q8IFM5 25-526).
T1 sequence: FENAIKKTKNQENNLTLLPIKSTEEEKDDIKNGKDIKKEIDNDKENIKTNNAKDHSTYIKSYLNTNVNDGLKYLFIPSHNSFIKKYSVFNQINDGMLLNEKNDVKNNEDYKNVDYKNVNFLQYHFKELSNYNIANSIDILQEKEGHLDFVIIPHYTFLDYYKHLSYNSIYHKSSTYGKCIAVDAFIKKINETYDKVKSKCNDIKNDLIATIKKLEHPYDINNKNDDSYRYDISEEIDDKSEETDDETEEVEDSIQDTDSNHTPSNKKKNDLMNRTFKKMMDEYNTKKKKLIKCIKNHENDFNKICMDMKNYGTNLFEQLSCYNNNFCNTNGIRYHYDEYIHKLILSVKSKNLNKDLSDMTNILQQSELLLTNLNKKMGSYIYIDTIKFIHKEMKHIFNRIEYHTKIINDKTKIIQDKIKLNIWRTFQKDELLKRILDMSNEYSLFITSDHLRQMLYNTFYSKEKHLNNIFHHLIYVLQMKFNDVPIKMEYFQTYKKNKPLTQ
Nature of the experiment: BSI, free solution, label-free.

B1: Basigin (receptor)
chain: AAGTVFTTVEDLGSKILLTCSLNDSATEVTGHRWLKGGVVLKEDALPGQKTEFKVDSDDQWGEYSCVFLPEPMGTANIQLHGPPRVKAVKSSEHINEGETAMLVCKSESVPPVTDWAWYKITDSEDKALMNGSESRFFVSSSQGRSELHIENLNMEADPGQYRCNGTSSKGSDQAIITLRVRSH
notes: If it applies, basigin was whole, on human erythrocytes
For the molecule B1, binding was put at a Kd of 1080 nM.
